The nanobody polyreactivity screen of Harvey et al. (2022)

Experiment: yeast display, Sf9 membrane polyspecificity reagent, FACS + sequencing; frameworks hold sequencing errors
Outline: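 Galactose-induced (36–48 hours) yeast carrying a synthetic nanobody display library were exposed to 10% biotinylated, detergent-solubilized Sf9 membrane reagent at 4 °C for 1 hour. FACS followed streptavidin microbead enrichment, using low and high (top ~1%) gates for expression (anti-HA) and reagent binding (streptavidin). Colony PCR, MiSeq 2 × 250 sequencing and CDR-length filtering followed. Labels for polyreactivity reflect the gate of origin.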

QVQLVESGGGLVQAGGSLRLSSAASGRIIKIYAMGWYRQAPGKERELVAAISGRGGSTYYADSVKGRFTISRDNAKYTVYLQMNSLKPEDTAVYYCAAVGYGFSAYSTYDYWGQGTQVTVSS
polyreactivity (PSR sort gate): high polyreactivity

QVQLVESGGGLVQAGGSLRLSCAASGSIFDIYAMGWYRQAPGKERELVADITISGGSTYYADSVKGRFTISRDNAKNTVYLQMNSLKPEDTAVYYCKKAYLGYRYDLYDYWGQGTQVTVSS
polyreactivity (PSR sort gate): low polyreactivity

QVQLVESGGGLVQAGGSLRLSCAASGFTFRYYVMGWSRQAPGKESELVAAICWSGGSTYYADSVKVRFTISRDNAKNTVYLQMNRLKPEDTAFYYCNARRYFRTSQQPLYDYWGQGTQVTVSS
polyreactivity (PSR sort gate): high polyreactivity

QVHLQDSGVGLVQAGGSLRLSCAASGSIFGSGSMGWFRQAPGKERELVATINNGSSTYYADSVKGRFTISRDNAKNTVYLQMNSLKPEDTAVYYCAVYLYRLTFFYYWGQGNQVTVSS
polyreactivity (PSR sort gate): high polyreactivity

QVQLVESGGGLVQAGGSLRLSCAASGFTVSWYVMGWYRQAPGKERELVAAITWSGGNTYADSVKGRFTISRDNAKNTVYLQMNSLKPEDTAVYYCAADPAHGTKWYVYPSHDDYWGQGTQVTVSS
polyreactivity (PSR sort gate): low polyreactivity

QVQLVESGGGLVQAGGSLRLSCAASGSTFVPYTMGWYRQAPGKERELVAAISSGDSTYYADSVKGRFTISRDNAKNTVYLQMNSLKPEDTAVYYCAADYQWFWVWYGYWGQGTQVTVSS
polyreactivity (PSR sort gate): high polyreactivity

QVQLVESGGGLVQAGGSLRLSCAASGRTFGHYAMGWYRQAPGKERELVATITGGGTTNYADSVKGRFTISRDNAKNTVYLQMNRLKPEDTAVYYCNAAWRYYWLGLRRNGYWGQGTQVTVSS
polyreactivity (PSR sort gate): high polyreactivity

HVHLQESGGGLVQAGGSLRLSCAASGSINDETYMAWYRQAPGKERELVATIDSGSTTNYADSVKGRITISRDNAKNTVYLQMNSLKPEDTAVYYCAAADSHIDYFDYWGQGSQVTVSS
polyreactivity (PSR sort gate): low polyreactivity

QDQLVESGGGLVQAGGSLRLSCAASGRTFTYYAMGWYRQAPGKDRELDAGISSGGGSTYYADSVKGRFTISRDHAKNTVYLQMNSLKPEDTAVYYCATAKRQGGYSEYDYWGQGTQVTVSS
polyreactivity (PSR sort gate): high polyreactivity

QVQLVESGGGLVQAGGSLRLSCAASGSTLVIYAMGWYRQAPGKERELVAAINFSDGSTSYADSVKGRFTISRDNAKNTVYLQMNSLKPEDTAVYYWGQGTQVTVSS
polyreactivity (PSR sort gate): low polyreactivity

QVQLVESGGGLVQAGGSLRLSCAASGRTFRGNVMGWYRQATGKEREFVAAITRSGSNTYYADSVKGRFTISRDYAKTTVYLQMNSLKPEDTAVYDCAKSVLLGYKRHDSWGQGTQVTVSS
polyreactivity (PSR sort gate): high polyreactivity

QVQLVESGAGLVHAGGSLRLSCAASGLIYVNAMGWYRQAPGKERDFVAAITYSTGSTYYADSVKGRYTISRDNAKNTVYLQMNSLKPEDSAVYYCATDEHSSGRTPYDYWVQGTQVTVSS
polyreactivity (PSR sort gate): low polyreactivity

HDQLVESGGGFVQAGGSLRLSCAASGSIFRYNPMGWYRQAPGKEMELVAAISYGGGITRYADSVKGRFTISRDNAKNTVYLQMNSLKPEDTAVYYCNKAYVWRRMDYWGQGTQVTVSS
polyreactivity (PSR sort gate): high polyreactivity

QVQLVESGGGLVQAGGSLRLSCAASGRIFGPYAMGWYRHAPGKERELVAAISSSGSTTYYADSVKGRFTISRDNAKNTVYLQMNSLKPEDTAVYYCAKPSSRDSPYDYWGQGTQVTVSS
polyreactivity (PSR sort gate): low polyreactivity

QVQLVESGGGLVQAGGSLRLSCAASGRTFYDNAMGWYRQAPGNERELVAAITVRGGSTRYADSVKGRFTISRDNAKNTVYLQLNSLKPEDTAVYYCAATQTPYRYHYDYWGQGTQVTVSS
polyreactivity (PSR sort gate): high polyreactivity

QVQLVESGGGLVQAGGSLRLSCAASGSTFVVNAMGWYSLAPGKERELVAAITQDGDGTYYADSVKGRFTISRDNAKNTVYLQMNSLKPEDTAVYYCAAYPFSGPYDEFDYWRQGTQVTVSS
polyreactivity (PSR sort gate): low polyreactivity

QVQLVESGGGLVQAGGSLRLSCAASGRIFKWYAMGWSRQAPGKEREFVAGISGSAGRTYYADSVKGRFTISRDNAKNTVYLQMNSLKPEDTAVYYCAKDYNRPVEDWAKVNGYDYWGQGTQVTVSS
polyreactivity (PSR sort gate): low polyreactivity

QVQLVESGGGLVQAGGRLRLSCAASGSIFSKNVMGWYRQAPGKERELVAAISIGGRTYYADSVKGRFTISRDNAKNTVSLQLNSLKPEDTAVYYCNTRFAKRATVGRYDYWGQGTQVTVSS
polyreactivity (PSR sort gate): high polyreactivity

QVQLVESGGGLVQAGGSLRLSCAASGSTYPYPYTMGWSRQAPGKERELVAVISRTGGSTFYADSVKGRFTISRDNAKNTVHLQMNSLKPEDTAVYYCAARRDGWTFWKYDYWGQGTQVTVSS
polyreactivity (PSR sort gate): high polyreactivity

QVQLVESGGGIVQAGGSLRLSCAASGRIVRNYAMGWYRQAPGKERELVAGITRGGRTNYAHSVKGRFTISRDNAKNTVYLQMNSLKPEDTAVYYCNKVSSFGYYYWGQGTQVTVSS
polyreactivity (PSR sort gate): high polyreactivity

QVQLVESGGGLVQAGGSLRLSCAASGSIFRVYAMGWYRQAPGKERELVASISRRGGSTYYADSVKGRFTISRDYAKNTVYLQMNSLKPEDTAVYYCAAEFVIGGHGYDYWGQGTQVSVSS
polyreactivity (PSR sort gate): high polyreactivity

QVQLVESGGGLVQAGGSLRLSCAASGFTFVSYAMGWYRQAPGKERELVAVISKSGSRTSYAESVKGRFTISRDNAKNTVYLQMNSLKPEDTAVYYCAVFYTRIGPRYDYWGQGTQVTVSS
polyreactivity (PSR sort gate): high polyreactivity

QVQLVESGGGLVQAGGSLRLTCAASGRIFLYYTMGWYRQAPGKERELVAAITRSGGSTYYADSVKGRFTISRDNAKNTVYLQMNSLKPEDTAVYYCKRAYVRYVPMNYWGQGTQVTLSS
polyreactivity (PSR sort gate): high polyreactivity

QVQLVESGGGLVQEGGSLRLSCAASGITFSRNAMGWYRPAPGKERELVATITSGGSTNYADSVKGRFTISRDNAKNNVYLQMNSLKPEDTAVYYCNAVWNTFISGRSYDYWGQGTQVTVSS
polyreactivity (PSR sort gate): low polyreactivity

QVQLVESGGGLVQAGGSLRLSCAASGRIFFTNAMGWYRQAPGKERELVAAISKSGARTYYADSVKGRFTISRDNAKNTVYLQMNSLKPEDTAVYYCAADVSVSGYGYWGQGTQVTVSS
polyreactivity (PSR sort gate): high polyreactivity

QVQLVESGGGLVQAGGSLRLNCAASGRNLPFYAMGWYRQAPGKERDLVATISWTSDSTYYADSVKGRFTISRDNPKNTVFLQMNSLIREVTGVYYCASVYTYTYASTVIYDHWGQGTQVTVSS
polyreactivity (PSR sort gate): low polyreactivity

QVQLVESGGGLVQAGGSLRLSCAASGLIFYRYAMGWYRQAPGKERELVAAISSSGVSTYYADSVKGRFTISRDNAKNTVYLQMNSLIPEDTAVYYCAADVGSRSYSYDYWGQGTQVTVSS
polyreactivity (PSR sort gate): low polyreactivity

QVQLVESGGGIVQAGGSLRLSCAASGRTFPRYAMGWYRQAPGKERELVAAISVRAGITYYADSVKGRFTISRDNAKNTVYLQMNSLKPEDTAVYYCAKDHWTTSYDEGDYWGQGTQVTVSS
polyreactivity (PSR sort gate): low polyreactivity

QVQLVESGGGLVQAGGSLRLSCAASGIIFSKNTMGWYRQAPGKERELVAAISRSGGTSTYYADSVKGRFTISRDNAKNTVYLQMNSLKPEDTAVYYCAAGVPRIGGYYYWGQGTQVTVSS
polyreactivity (PSR sort gate): low polyreactivity

QVQFVESGGGLVQAGGSLRLSCAASGSTFPYYAMGWYRQAPGKERELVAGINWRGSSTYYADSVKGRFTISRDNAKNTVYLQMNSLKPEDTAVYYCAARDYSYPQWYYYWGQGTQVTVSS
polyreactivity (PSR sort gate): high polyreactivity

QVQLVESGGGLVQAGGSLRLSCAASGSIFEYYTMGWYIQAPGKERELVAGISWSGGSSYYADSVKGRFTISRDNAKNTVYLQMNSLKPEDTAVYYCAAGRTGWYWDSGSTYRYGYGYWGQGTQVTVSS
polyreactivity (PSR sort gate): high polyreactivity

QVQLVESGGGLVQAGGSLRLSCAASGFIITQYAMGWYSQEPGKERELVAAISGNGGRTYYADSVKGRFTISRDNAKYTVYLHLISLKPEDTAVYYCAVTYYWYGVRYDYWGQCTQVTVSS
polyreactivity (PSR sort gate): high polyreactivity
